Data from patent US20220243184, “ENGINEERED Cas-Transposon SYSTEM FOR PROGRAMMABLE AND SITE-DIRECTED DNA TRANSPOSITIONS” (THE TRUSTEES OF COLUMBIA UNIVERSITY IN THE CITY OF NEW YORK, published 2022).

Biological target: Himar1C9-XTEN-dCas9 (Himar-dCas9) (synthetic fusion (Haematobia irritans …, UniProt Q99ZW2 SEQ:1-1732))
Assay: no gRNA; baseline insertion hotspot
Conditions: tags: C-terminal 6xHis; chain copies: 2 inferred
Experimental: FIG. 2A through FIG. 2C. Himar-dCas9 specificity is dependent on gRNA spacing and target site. (FIG. 2A) Illustration of gRNA strand orientation and spacings to TA insertion site gRNA1 (SEQ ID NO: 53) and gRNA2 (SEQ ID No: 54) and target DNA (SEQ ID No: 55). (FIG. 2B) PCR analysis of transposon-target junctions from in vitro reactions containing 30 nM Himar-dCas9/gRNA complex, 2.27 nM transposon donor DNA, and 2.27 nM target DNA. Reactions (n=3) were run using gRNAs with spacings between 5 and 18 bp from the TA insertion site. Non-targeting gRNA (gRNA_5), no gRNA, and no transposase controls were also performed. Arrowheads indicate expected site-specific PCR products for each gRNA. Error bars indicate standard deviation. (FIG. 2C) Transposon sequencing results for reactions with no gRNAs (left, n=4) or with gRNA_4 (n=3), gRNA_8 (n=3), gRNA_12 (n=3), or gRNA_5 (n=3). The baseline random distribution of transposons along the recipient plasmid in each panel with a gRNA is shown in light gray.
To assess the distribution of transposon insertions around the target pGT-B1 plasmid, transposon sequencing was performed on transposition products resulting from three GFP-targeting gRNAs (gRNA_4, gRNA_8, and gRNA_12), a non-targeting gRNA, and no gRNA (FIG. 2C and FIG. 8). […]

B1: pGT-B1 position 5999 T/A-rich insertion site (dsDNA)
DNA 1: GCGAATTTTAAAATTCGC
DNA 2: GCGAATTTTAAAATTCGC
  binding result: binds
